This assay addresses human VEGF (human) (UniProt P15692). The experiment in a line: cell-based or functional assay.
Sequence of UniProt P15692 (P15692 other isoform, or with tags, fused parts or gaps limits assumed): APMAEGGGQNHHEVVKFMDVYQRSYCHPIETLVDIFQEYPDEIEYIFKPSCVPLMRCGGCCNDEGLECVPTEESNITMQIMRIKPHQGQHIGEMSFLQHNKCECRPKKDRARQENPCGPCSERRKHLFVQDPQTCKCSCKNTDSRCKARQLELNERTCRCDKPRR

Turning to VEGFR1-Fc-IL-1ra (Fc fusion), the EC50, inhibition of VEGF (10 ng/ml) dependent HUVE cell proliferation stood at 0.015 µg/mL.
